Target: T1, prolyl endopeptidase (PEP) (Elizabethkingia meningoseptica, UniProt P27028)
T1 construct: purchased Seikagaku Corporation (Tokyo, Japan)
Test: biochemical
Assay type: biochemical
Settings: 0.7 and 1.4 mg/mL
Procedure: The PEP activity was determined as previously described with minor modifications. Enzyme assays were performed in 96-well microplates using Z-Gly-Pro-p-nitroanilide as a substrate and measuring the increase in absorbance at 410 nm due to the release of p-nitroaniline. Ten µL of tenfold peptide or hydrolysate solution in 100 mM sodium phosphate buffer, pH 7 ([…] for LFHs), 30 µL of a 0.1 U/mL PEP solution in 100 mM sodium phosphate buffer (pH 7) and 35 µL of the same sodium phosphate buffer were pre-incubated at 30 °C for 5 min, and the mixture incubated with 25 µL of 2 mM Z-Gly-Pro-p-nitroanilide in 40% 1,4-dioxane for 30 min at the same temperature. The reaction was finished by the addition of 100 µL 10% Triton X-100 in 1 M sodium acetate buffer (pH 4), and the absorbance measured at 410 nm in a microplate reader. Data are expressed as the percentage of PEP residual activity with respect to a control without peptide (100%).
The IC50 value of a peptide was defined as the concentration required to inhibit 50% of the PEP activity and the value for each experiment was estimated by non-linear regression of the experimental data to a four-parameter logistic curve using the software package SigmaPlot v 13.0 (SPSS Inc., Chicago, IL, USA).

T1 sequence (P27028 21-705): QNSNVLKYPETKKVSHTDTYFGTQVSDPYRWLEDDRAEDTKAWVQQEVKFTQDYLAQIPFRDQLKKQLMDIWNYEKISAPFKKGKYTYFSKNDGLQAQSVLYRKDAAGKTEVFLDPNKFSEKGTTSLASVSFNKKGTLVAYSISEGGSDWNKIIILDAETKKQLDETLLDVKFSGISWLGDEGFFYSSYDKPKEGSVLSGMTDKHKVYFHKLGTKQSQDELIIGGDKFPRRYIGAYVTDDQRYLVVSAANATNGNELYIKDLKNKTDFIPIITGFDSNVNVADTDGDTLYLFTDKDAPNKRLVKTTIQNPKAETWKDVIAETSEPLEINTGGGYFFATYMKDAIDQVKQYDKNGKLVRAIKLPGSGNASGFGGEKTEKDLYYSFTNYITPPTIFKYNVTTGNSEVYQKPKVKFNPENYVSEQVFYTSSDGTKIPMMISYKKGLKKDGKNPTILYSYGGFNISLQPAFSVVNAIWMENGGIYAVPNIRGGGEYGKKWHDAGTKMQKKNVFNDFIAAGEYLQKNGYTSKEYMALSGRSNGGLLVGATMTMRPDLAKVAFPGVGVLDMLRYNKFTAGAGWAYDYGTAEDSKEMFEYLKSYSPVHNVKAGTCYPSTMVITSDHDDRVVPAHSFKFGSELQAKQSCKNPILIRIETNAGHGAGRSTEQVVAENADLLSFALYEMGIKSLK

B1: Non-hydrolysed LF: bovine lactoferrin, multifunctional iron glycoprotein of milk whey, not hydrolysed (protein, UniProt P24627 20-708, looked up)
Lactotransferrin: APRKNVRWCTISQPEWFKCRRWQWRMKKLGAPSITCVRRAFALECIRAIAEKKADAVTLDGGMVFEAGRDPYKLRPVAAEIYGTKESPQTHYYAVAVVKKGSNFQLDQLQGRKSCHTGLGRSAGWIIPMGILRPYLSWTESLEPLQGAVAKFFSASCVPCIDRQAYPNLCQLCKGEGENQCACSSREPYFGYSGAFKCLQDGAGDVAFVKETTVFENLPEKADRDQYELLCLNNSRAPVDAFKECHLAQVPSHAVVARSVDGKEDLIWKLLSKAQEKFGKNKSRSFQLFGSPPGQRDLLFKDSALGFLRIPSKVDSALYLGSRYLTTLKNLRETAEEVKARYTRVVWCAVGPEEQKKCQQWSQQSGQNVTCATASTTDDCIVLVLKGEADALNLDGGYIYTAGKCGLVPVLAENRKSSKHSSLDCVLRPTEGYLAVAVVKKANEGLTWNSLKDKKSCHTAVDRTAGWNIPMGLIVNQTGSCAFDEFFSQSCAPGADPKSRLCALCAGDDQGLDKCVPNSKEKYYGYTGAFRCLAEDVGDVAFVKNDTVWENTNGESTADWAKNLNREDFRLLCLDGTRKPVTEAQSCHLAVAPNHAVVSRSDRAAHVKQVLLHQQALFGKNGKNCPDKFCLFKSETKNLLFNDNTECLAKLGGRPTYEEYLGTEYVTAIANLKKCSTSPLLEACAFLTR
inhibitory effect on PEP activity: did not show any inhibitory effect
